Test results taken from paper PMC2375353, “Effective treatment of experimental U-87MG human glioblastoma in nude mice with a targeted cytotoxic bombesin analogue, AN-215” (British Journal of Cancer, 2002).

Tests used:
[1] = General toxicity (mortality, body weight); type: in vivo, nude mice; settings: for Final BW: mean±s.e.
Experimental: Experiment 1 was started when tumours had grown to approximately 40 mm^3 in volume. Animals were randomly divided into three treatment groups: group 1(10 mice), control, which received vehicle solution; group 2 (10 mice), injected with cytotoxic radical AN-201; group 3 (11 mice), given cytotoxic BN analogue AN-215. Cytotoxic compounds were injected through the jugular vein at a dose of 150 nmol kg^−1 of body weight (BW) on days 1, 8, 15 and 22. Tumour volume (length×width×height×0.5236) and BW were measured twice a week. The experiment was terminated on day 29. […] Tumours were excised and weighed. Tumour specimens were snap-frozen and stored at −70°C until extraction of RNA for reverse transcription-polymerase chain reaction (RT–PCR). Tumour volume doubling time was calculated between day 1 and 29 using the formula: […]
Experiment 2 was started when U-87MG tumours had grown to 70–84 mm^3 in volume. The animals were divided into the following treatment groups: group 1 (10 mice), control, vehicle solution; group 2 (10 mice), analogue AN-215; group 3 (five mice), unconjugated mixture of the cytotoxic radical AN-201 and BN antagonist RC-3095. All compounds were injected i.v. at 150 nmol kg^−1 of BW on days 1, 10, and 17. In addition, one group of tumour-bearing mice received an i.v. injection of 200 μg of BN antagonist RC-3095 15 min before each administration of AN-215 at a dose of 150 nmol kg^−1 of BW on days 1, 10 and 17 as in the case of group 2. The experiment was terminated on day 20 as described above.
(§1) General toxicity was evaluated on the basis of mortality rate and changes in BW. Toxicity to BN receptor-positive organs was assessed by measuring gastrin release in response to GRP stimulation ([Plonowski et al, 2000]). At the end of experiment 1, blood samples were collected 5 min after i.v. injection of 2 μg of GRP(14-27) dissolved in 100 μl of 5% mannitol. Serum gastrin concentrations were measured by double-antibody radioimmunoassay with a kit provided by ICN Pharmaceuticals Diagnostic Division (Orangeburg, NY, USA). The interassay variation was 10.6%, and the intraassay variation was 6%.

[2] = system: BN receptor-positive organs; assay: GRP-stimulated serum gastrin release; type: in vivo, nude mice; settings: for Effect on GRP-stimulated gastrin release: experiment 1, after i.v. stimulation with GRP(14-27); for GRP(14-27)-evoked serum gastrin level: experiment 1 end, 5 min after i.v. 2 μg GRP(14-27), radioimmunoassay, control 223.0±17.9, mean±s.e.
Experimental: as §1, with “At the end of experiment 1, blood samples were collected 5 min after i.v. injection of 2 μg of GRP(14-27) dissolved in 100 μl of 5% mannitol.” left out

[3] = set-up: method as in 2 sources, one per row (each row's own in cited_ref): ref Nagy et al, 1997 ||| ref not printed in the sentence (AN-201: Nagy et al, 1996); settings: cited from earlier work
Source text: Current treatment options for malignant gliomas, including surgery, radiation, and chemotherapy, are of limited effectiveness, and novel therapeutic modalities must be explored. Targeting of antineoplastic agents to cancer cells by linking them to a ligand with high affinity for tumour cells should improve tumour growth inhibition and decrease peripheral toxicity ([Schally and Nagy, 1999]). The presence of high affinity receptors for bombesin (BN)-like peptides on a wide variety of tumours prompted us to employ some of our powerful BN/gastrin releasing peptide (GRP) antagonists as carrier mole ... || Recently, we developed a series of targeted cytotoxic conjugates based on analogues of peptide hormones such as luteinizing hormone-releasing hormone(LH-RH), somatostatin and BN/GRP, for which high affinity receptors are expressed on a variety of tumours ([Schally and Nagy, 1999]; [Nagy and Schally, 2001]).

[4] = system: hNMBR/BRS-2; assay: RT-PCR of hNMBR/BRS-2 mRNA in U-87MG tumours; type: in vivo, human; settings: experiment 1 tumours; normalised vs hGAPDH; control 7.6±3.5
Experimental: (§2) Total RNA was extracted from frozen tissue samples by using RNAzolB (Tel-Test, Friendswood, TX, USA) according to the manufacturer's instructions. Concentrations of total RNA were calculated by measuring the OD260 value. Total RNA (4 μg) was subjected to electrophoresis for 2 h at 70 V in 10 μl of sample buffer containing 1× MOPS buffer (pH 6.5), 6.4% formaldehyde, 48% deionized formamide, 0.25% w v^−1 bromophenol blue, 0.05% glycerol and 0.25 mg ml^−1 ethidium bromide. The RNA gel contained 1.4% agarose, 1×MOPS (pH 6.5) and 1.73% formaldehyde.
(§3) The RT–PCR was performed using Gene Amp RNA Core Kit (Perkin-Elmer, Foster City, CA, USA). To avoid genomic DNA contamination, all samples were subjected to DNase digestion before RT–PCR. RNA (2 μg) was treated with 0.3 unit of RQ1 RNase-free DNase (Promega, Madison, WI, USA) at 37°C for 30 min in 19 μl of mixture containing 5 mM MgCl2, 1× PCR buffer, 1 mM of each dNTP, 1 unit RNase inhibitor and 2.5 μM random hexamers. The reaction was terminated by enzyme denaturation at 99°C for 5 min. […]
(§4) The PCR amplification of the cDNAs for human glyceraldehyde-3-phosphate dehydrogenase (hGAPDH), GRP receptor (hGRPR, BRS-1) and neuromedin-B receptor (hNMBR, BRS-2) was performed as follows. […] The number of cycles was determined in preliminary experiments to be within the exponential range of PCR amplification.

[5] = system: hGRPR/BRS-1; assay: RT-PCR of hGRPR/BRS-1 mRNA in U-87MG tumours; type: in vivo, human; settings: experiment 1 tumours; normalised vs hGAPDH; control 15.1±1.5; change not significant
Experimental: as §2, §3, §4

[6] = experiment 1, 150 nmol kg^-1 i.v. days 1, 8, 15, 22
[7] = experiment 1, 150 nmol kg^-1 i.v. days 1, 8, 15, 22, control 0/10
[8] = experiment 1, day 29, control 29.3±1.0

Compound | Toxicity by BW and mortality ([1]; both experiments, 150 nmol kg^-1 i.v.) | Mortality, % of animals [1, 6] | Mortality (number of dead animals/number of total) [1, 7] | Final BW, % of control ([1]; experiment 1, day 29) | Final BW [1, 8] | Mortality (number of dead animals/number of total) ([1]; experiment 2, 150 nmol kg^-1 i.v. days 1, 10, 17, control 1/10) | Toxicity-related deaths ([1]; experiment 2, AN-215 150 nmol kg^-1 without pretreatment) | Mortality, % of animals, after RC-3095 pretreatment ([1]; experiment 2, RC-3095 200 μg i.v. about 15 min before AN-215) | Final BW, % of control ([1]; experiment 2, day 20) | Final BW ([1]; experiment 2, day 20, control 30.2±0.8) | Damage to gastrointestinal cells ([2]; GRP-stimulated gastric secretion, this study and also ref Plonowski et al, 2000) | Effect on GRP-stimulated gastrin release [2] | GRP(14-27)-evoked serum gastrin level [2] | Antiproliferative effect ([3]; ref Nagy et al, 1997) | hNMBR/BRS-2 mRNA expression [4] | hGRPR/BRS-1 mRNA expression [5] | Potency relative to DOX (fold) ([3]; in vitro, ref not printed in the sentence (AN-201: Nagy et al, 1996))
Gln-Trp-Ala-Val-Gly-His-Leu-ψ(CH2-NH)-Leu-NH2 [AN-215] | not toxic | 9% | 1/11 | 87% | 25.4 ± 0.6 g | 0/10 | no toxicity-related deaths | 11% | 90% | 27.3 ± 0.9 g | no specific damage to the gastrointestinal cells | Neither AN-215 nor AN-201 affected GRP-stimulated gastrin release | 257.9 ± 11.6 pg/mL | retains the antiproliferative effect of its cytotoxic moiety | 3.3±1.0 a.u. | 25.4±5.1 a.u. | 
COc1cccc2c1C(=O)c1c(O)c3c(c(O)c1C2=O)C[C@@](O)(C(=O)CO)C[C@@H]3O[C@H]1C[C@H](N2C=CCC2)[C@H](O)[C@H](C)O1 [AN-201, 2-pyrrolino-doxorubicin] |  | 20% | 2/10 |  | 25.5 ± 0.8 g |  |  |  |  |  |  | Neither AN-215 nor AN-201 affected GRP-stimulated gastrin release | 251.5 ± 22.1 pg/mL |  | 10.9±3.6 a.u. | 21.6±3.4 a.u. | 1000 times
